Assay results: ChEMBL document CHEMBL1144764, “A molecular modeling study of the interaction of 2'-fluoro-substituted analogues of dUMP/FdUMP with thymidylate synthase” (Bioorg Med Chem Lett, 2008)

Key:
[1] = substrate: O=c1ccn([C@@H]2O[C@H](COP(=O)(O)O)[C@@H](O)[C@H]2F)c(=O)[nH]1; conditions: Homo sapiens
Description: (§1) Activity at human recombinant thymidylate synthase

[2] = substrate: O=c1ccn([C@H]2C[C@H](O)[C@@H](COP(=O)(O)O)O2)c(=O)[nH]1; conditions: Homo sapiens
Description: as §1

B1: Thymidylate synthase (Homo sapiens), P04818 (protein)
chain: MPVAGSELPRRPLPPAAQERDAEPRPPHGELQYLGQIQHILRCGVRKDDRTGTGTLSVFGMQARYSLRDEFPLLTTKRVFWKGVLEELLWFIKGSTNAKELSSKGVKIWDANGSRDFLDSLGFSTREEGDLGPVYGFQWRHFGAEYRDMESDYSGQGVDQLQRVIDTIKTNPDDRRIIMCAWNPRDLPLMALPPCHALCQFYVVNSELSCQLYQRSGDMGLGVPFNIASYALLTYMIAHITGLKPGDFIHTLGDAHIYLNHIEPLKIQLQREPRPFPKLRILRKVEKIDDFKAEDFQIEGYNPHPTIKMEMAV
Km [1]: 12.2 µM
Km [2]: 5.25 µM
